From the supplement of paper PMC10065799, “High-throughput profiling of sequence recognition by tyrosine kinases and SH2 domains using bacterial peptide display” (eLife, 2023)

Tested on: AncSZ
Experiment: phosphorylation enrichment, bacterial display (enrichment ratio); higher = better substrate or ligand; peptides without Tyr show the background
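Note: 11-residue human phosphosite peptides and single-mutation variants displayed on the E. coli surface, counted by deep sequencing, each peptide's frequency after selection divided by its frequency in the unselected input library; frequency after pTyr selection over input frequency; kinase dosed for 20-30% of maximal phosphorylation in three min.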

Going from AYGGGYGGVLT [KRT19_Y65] to RPAFTYATLIR [FOXP3_Y342_P339A], the phosphorylation enrichment rises from 0.583 to 1.19.

First: KTAFSYTSSST [SIM1_Y356_P352T]
Second: HFPFQYHRQLY [F12_Y53]
The phosphorylation enrichment of the first is lower: 0.665 for the first, 1.03 for the second.

Compared with EIEFLYNENMV [IARS1_Y680_T684M], VVTGLYEKPSL [KIR3DS1_Y221] is higher in phosphorylation enrichment: 1.21 for the first, 1.36 for the second.

Compared with CFCSWYRGWAP [TIMP3_Y195_G190C_YF], VMSGPYNLKAL [IL1B_Y140_E141N] is lower in phosphorylation enrichment: 1.28 for the first, 0.888 for the second.

Compared with PLLEFYRDIFT [CDAN1_Y713_YF], KFANSYIMEPL [TCTE3_Y87_R88I] is lower in phosphorylation enrichment: 1.85 for the first, 0.853 for the second.

Going from PADRAYSWYQH [NDST1_Y711] to RELGKYGLQAF [ALDH2_Y497_E496K_YF], the phosphorylation enrichment rises from 0.98 to 1.

First: SLGKGYFDGGC [MC4R_Y35_S36Y_YF]
Second: RLLVVYPGTQR [HBB_Y36_W38G]
The phosphorylation enrichment of the first is higher: 0.922 for the first, 0.918 for the second.

Compared with GPIFRYDLGGA [CYP11B1_Y81], TCFDKYTGNTY [FN1_Y101] is higher in phosphorylation enrichment: 0.777 for the first, 1.3 for the second.

Going from KFDLMYAKRAF [TUBA1A_Y399] to IMITGYLLLFR [INSR_Y87_D86G], the phosphorylation enrichment rises from 0.905 to 1.19.

Compared with SVVVPYEPPVV [TP53_Y220_E224V], GVTLLYYGRYN [ADGRD1_Y85] is higher in phosphorylation enrichment: 1 for the first, 1.5 for the second.

Going from EEVGIYRVSGV [BCR_Y1089] to PVQAAYQKLVA [HBB_Y131_V134L], the phosphorylation enrichment falls from 1.04 to 0.735.

Compared with VKGGAYYPVTV [MCCC2_Y145], ANQDDHISFRH [IMP4_Y226_Y226H] is higher in phosphorylation enrichment: 0.582 for the first, 0.852 for the second.

First: GDNSIYVTKII [DLG1_Y349]
Second: GFPVHYTGVSN [DNMT3B_Y815_D817G]
The phosphorylation enrichment of the first is higher: 0.748 for the first, 0.545 for the second.

Going from IFLENYNAGTY [CFI_Y421_H418L] to GAPATYKGDAR [CACNA1A_Y1013_E1014K], the phosphorylation enrichment falls from 0.846 to 0.432.

Compared with GYSRHYEDGYP [CTNND1_Y217], YPLAEYTEVKT [ALDH1A3_Y497_A493P] is higher in phosphorylation enrichment: 0.691 for the first, 1.1 for the second.

Going from TTHRGYDSDNP [MMUT_Y146_A141T] to PLQKTYNFNVL [SLC4A1_Y553_YF], the phosphorylation enrichment falls from 0.744 to 0.686.

For VQSASYLNACL [MCM3AP_Y864], the phosphorylation enrichment was 0.759.

Target: EPHB1 (UniProt P54762)
Sequence (P54762 whole entry, looked up): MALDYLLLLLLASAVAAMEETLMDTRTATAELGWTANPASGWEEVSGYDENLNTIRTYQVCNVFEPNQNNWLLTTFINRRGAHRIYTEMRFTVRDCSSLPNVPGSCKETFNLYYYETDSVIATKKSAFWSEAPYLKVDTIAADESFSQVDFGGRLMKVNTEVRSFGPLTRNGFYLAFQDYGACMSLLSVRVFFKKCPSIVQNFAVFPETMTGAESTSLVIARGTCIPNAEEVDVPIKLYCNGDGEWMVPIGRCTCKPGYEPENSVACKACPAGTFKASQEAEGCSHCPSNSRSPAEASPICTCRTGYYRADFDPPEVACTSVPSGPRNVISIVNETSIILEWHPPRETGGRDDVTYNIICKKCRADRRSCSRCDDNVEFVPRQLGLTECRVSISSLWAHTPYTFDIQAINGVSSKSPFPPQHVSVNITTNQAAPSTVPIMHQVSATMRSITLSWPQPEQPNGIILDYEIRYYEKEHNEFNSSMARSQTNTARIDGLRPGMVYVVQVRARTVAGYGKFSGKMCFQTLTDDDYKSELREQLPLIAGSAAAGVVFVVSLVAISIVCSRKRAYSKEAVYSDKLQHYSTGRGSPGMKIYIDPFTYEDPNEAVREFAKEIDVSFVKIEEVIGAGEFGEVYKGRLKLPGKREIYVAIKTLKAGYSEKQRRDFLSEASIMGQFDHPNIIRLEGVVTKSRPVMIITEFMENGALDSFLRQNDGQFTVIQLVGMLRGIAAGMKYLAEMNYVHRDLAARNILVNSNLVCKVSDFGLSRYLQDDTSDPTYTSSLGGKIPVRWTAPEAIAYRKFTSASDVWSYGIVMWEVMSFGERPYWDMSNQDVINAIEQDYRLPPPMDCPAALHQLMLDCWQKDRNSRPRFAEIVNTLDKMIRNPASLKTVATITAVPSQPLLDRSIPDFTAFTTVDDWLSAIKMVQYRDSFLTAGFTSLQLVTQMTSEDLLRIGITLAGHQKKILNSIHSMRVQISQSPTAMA
Experiment: as above

First: AYGGGYGGVLT [KRT19_Y65]
Second: RPAFTYATLIR [FOXP3_Y342_P339A]
The phosphorylation enrichment of the first is lower: 0.461 for the first, 2.25 for the second.

Compared with KTAFSYTSSST [SIM1_Y356_P352T], HFPFQYHRQLY [F12_Y53] is higher in phosphorylation enrichment: 0.329 for the first, 0.583 for the second.

Going from EIEFLYNENMV [IARS1_Y680_T684M] to VVTGLYEKPSL [KIR3DS1_Y221], the phosphorylation enrichment rises from 0.595 to 4.21.

Compared with CFCSWYRGWAP [TIMP3_Y195_G190C_YF], VMSGPYNLKAL [IL1B_Y140_E141N] is lower in phosphorylation enrichment: 0.859 for the first, 0.534 for the second.

First: PLLEFYRDIFT [CDAN1_Y713_YF]
Second: KFANSYIMEPL [TCTE3_Y87_R88I]
The phosphorylation enrichment of the first is higher: 0.95 for the first, 0.39 for the second.

Going from PADRAYSWYQH [NDST1_Y711] to RELGKYGLQAF [ALDH2_Y497_E496K_YF], the phosphorylation enrichment falls from 1.19 to 0.489.

Going from SLGKGYFDGGC [MC4R_Y35_S36Y_YF] to RLLVVYPGTQR [HBB_Y36_W38G], the phosphorylation enrichment rises from 0.452 to 0.539.

Compared with GPIFRYDLGGA [CYP11B1_Y81], TCFDKYTGNTY [FN1_Y101] is higher in phosphorylation enrichment: 0.478 for the first, 0.519 for the second.

Compared with KFDLMYAKRAF [TUBA1A_Y399], IMITGYLLLFR [INSR_Y87_D86G] is lower in phosphorylation enrichment: 0.535 for the first, 0.521 for the second.

First: SVVVPYEPPVV [TP53_Y220_E224V]
Second: GVTLLYYGRYN [ADGRD1_Y85]
The phosphorylation enrichment of the first is lower: 0.518 for the first, 0.808 for the second.

Compared with EEVGIYRVSGV [BCR_Y1089], PVQAAYQKLVA [HBB_Y131_V134L] is lower in phosphorylation enrichment: 0.488 for the first, 0.458 for the second.

First: VKGGAYYPVTV [MCCC2_Y145]
Second: ANQDDHISFRH [IMP4_Y226_Y226H]
The phosphorylation enrichment of the first is lower: 0.331 for the first, 0.518 for the second.

Going from GDNSIYVTKII [DLG1_Y349] to GFPVHYTGVSN [DNMT3B_Y815_D817G], the phosphorylation enrichment falls from 0.472 to 0.38.

Going from IFLENYNAGTY [CFI_Y421_H418L] to GAPATYKGDAR [CACNA1A_Y1013_E1014K], the phosphorylation enrichment falls from 0.656 to 0.332.

Going from GYSRHYEDGYP [CTNND1_Y217] to YPLAEYTEVKT [ALDH1A3_Y497_A493P], the phosphorylation enrichment rises from 0.383 to 0.563.

Compared with TTHRGYDSDNP [MMUT_Y146_A141T], PLQKTYNFNVL [SLC4A1_Y553_YF] is higher in phosphorylation enrichment: 0.685 for the first, 0.709 for the second.

Work on VQSASYLNACL [MCM3AP_Y864] yielded a phosphorylation enrichment of 0.418.

Target: EPHB2 (UniProt P29323)
Sequence (P29323 whole entry, looked up): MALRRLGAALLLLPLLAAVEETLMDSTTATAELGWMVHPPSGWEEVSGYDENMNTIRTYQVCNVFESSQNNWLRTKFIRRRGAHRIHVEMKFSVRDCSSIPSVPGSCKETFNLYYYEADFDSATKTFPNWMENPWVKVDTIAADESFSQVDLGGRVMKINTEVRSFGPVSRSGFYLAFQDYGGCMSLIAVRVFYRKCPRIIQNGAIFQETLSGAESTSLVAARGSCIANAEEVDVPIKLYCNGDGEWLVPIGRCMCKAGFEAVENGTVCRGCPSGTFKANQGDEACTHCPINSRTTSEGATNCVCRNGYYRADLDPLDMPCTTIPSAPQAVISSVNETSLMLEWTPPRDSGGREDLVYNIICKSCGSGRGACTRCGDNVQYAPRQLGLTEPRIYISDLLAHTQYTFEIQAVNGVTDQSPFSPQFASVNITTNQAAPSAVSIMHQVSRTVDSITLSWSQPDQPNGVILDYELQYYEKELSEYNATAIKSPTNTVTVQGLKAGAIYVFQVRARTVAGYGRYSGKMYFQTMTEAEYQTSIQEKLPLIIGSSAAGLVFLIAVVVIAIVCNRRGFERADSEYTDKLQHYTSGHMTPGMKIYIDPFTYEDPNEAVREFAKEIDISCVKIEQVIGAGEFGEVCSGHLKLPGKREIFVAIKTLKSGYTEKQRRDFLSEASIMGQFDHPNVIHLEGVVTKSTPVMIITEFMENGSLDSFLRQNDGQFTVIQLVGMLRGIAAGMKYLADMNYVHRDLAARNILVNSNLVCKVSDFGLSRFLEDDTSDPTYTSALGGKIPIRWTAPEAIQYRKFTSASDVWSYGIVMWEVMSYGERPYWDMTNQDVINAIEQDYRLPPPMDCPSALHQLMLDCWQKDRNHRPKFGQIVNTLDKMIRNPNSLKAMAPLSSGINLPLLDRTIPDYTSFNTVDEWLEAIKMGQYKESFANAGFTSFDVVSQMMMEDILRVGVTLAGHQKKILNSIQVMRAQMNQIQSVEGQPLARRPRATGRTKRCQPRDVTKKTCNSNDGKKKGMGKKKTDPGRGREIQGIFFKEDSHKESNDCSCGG
Experiment: as above

Compared with AYGGGYGGVLT [KRT19_Y65], RPAFTYATLIR [FOXP3_Y342_P339A] is higher in phosphorylation enrichment: 0.458 for the first, 1.17 for the second.

Going from KTAFSYTSSST [SIM1_Y356_P352T] to HFPFQYHRQLY [F12_Y53], the phosphorylation enrichment rises from 0.482 to 0.572.

Compared with EIEFLYNENMV [IARS1_Y680_T684M], VVTGLYEKPSL [KIR3DS1_Y221] is higher in phosphorylation enrichment: 0.678 for the first, 7.7 for the second.

First: CFCSWYRGWAP [TIMP3_Y195_G190C_YF]
Second: VMSGPYNLKAL [IL1B_Y140_E141N]
The phosphorylation enrichment of the first is higher: 0.707 for the first, 0.475 for the second.

Going from PLLEFYRDIFT [CDAN1_Y713_YF] to KFANSYIMEPL [TCTE3_Y87_R88I], the phosphorylation enrichment falls from 0.874 to 0.531.

Going from PADRAYSWYQH [NDST1_Y711] to RELGKYGLQAF [ALDH2_Y497_E496K_YF], the phosphorylation enrichment falls from 0.817 to 0.577.

Compared with SLGKGYFDGGC [MC4R_Y35_S36Y_YF], RLLVVYPGTQR [HBB_Y36_W38G] is higher in phosphorylation enrichment: 0.529 for the first, 0.683 for the second.

First: GPIFRYDLGGA [CYP11B1_Y81]
Second: TCFDKYTGNTY [FN1_Y101]
The phosphorylation enrichment of the first is lower: 0.431 for the first, 0.63 for the second.

Compared with KFDLMYAKRAF [TUBA1A_Y399], IMITGYLLLFR [INSR_Y87_D86G] is higher in phosphorylation enrichment: 0.536 for the first, 0.547 for the second.

Compared with SVVVPYEPPVV [TP53_Y220_E224V], GVTLLYYGRYN [ADGRD1_Y85] is higher in phosphorylation enrichment: 0.574 for the first, 0.92 for the second.

First: EEVGIYRVSGV [BCR_Y1089]
Second: PVQAAYQKLVA [HBB_Y131_V134L]
The phosphorylation enrichment of the first is lower: 0.434 for the first, 0.494 for the second.

Compared with VKGGAYYPVTV [MCCC2_Y145], ANQDDHISFRH [IMP4_Y226_Y226H] is lower in phosphorylation enrichment: 0.551 for the first, 0.497 for the second.

Compared with GDNSIYVTKII [DLG1_Y349], GFPVHYTGVSN [DNMT3B_Y815_D817G] is lower in phosphorylation enrichment: 0.693 for the first, 0.424 for the second.

Compared with IFLENYNAGTY [CFI_Y421_H418L], GAPATYKGDAR [CACNA1A_Y1013_E1014K] is lower in phosphorylation enrichment: 0.443 for the first, 0.422 for the second.

First: GYSRHYEDGYP [CTNND1_Y217]
Second: YPLAEYTEVKT [ALDH1A3_Y497_A493P]
The phosphorylation enrichment of the first is lower: 0.465 for the first, 0.642 for the second.

Going from TTHRGYDSDNP [MMUT_Y146_A141T] to PLQKTYNFNVL [SLC4A1_Y553_YF], the phosphorylation enrichment rises from 0.532 to 0.645.

VQSASYLNACL [MCM3AP_Y864] showed a phosphorylation enrichment of 0.473.

Target: FGFR1 (UniProt P11362)
Sequence (P11362 whole entry, looked up): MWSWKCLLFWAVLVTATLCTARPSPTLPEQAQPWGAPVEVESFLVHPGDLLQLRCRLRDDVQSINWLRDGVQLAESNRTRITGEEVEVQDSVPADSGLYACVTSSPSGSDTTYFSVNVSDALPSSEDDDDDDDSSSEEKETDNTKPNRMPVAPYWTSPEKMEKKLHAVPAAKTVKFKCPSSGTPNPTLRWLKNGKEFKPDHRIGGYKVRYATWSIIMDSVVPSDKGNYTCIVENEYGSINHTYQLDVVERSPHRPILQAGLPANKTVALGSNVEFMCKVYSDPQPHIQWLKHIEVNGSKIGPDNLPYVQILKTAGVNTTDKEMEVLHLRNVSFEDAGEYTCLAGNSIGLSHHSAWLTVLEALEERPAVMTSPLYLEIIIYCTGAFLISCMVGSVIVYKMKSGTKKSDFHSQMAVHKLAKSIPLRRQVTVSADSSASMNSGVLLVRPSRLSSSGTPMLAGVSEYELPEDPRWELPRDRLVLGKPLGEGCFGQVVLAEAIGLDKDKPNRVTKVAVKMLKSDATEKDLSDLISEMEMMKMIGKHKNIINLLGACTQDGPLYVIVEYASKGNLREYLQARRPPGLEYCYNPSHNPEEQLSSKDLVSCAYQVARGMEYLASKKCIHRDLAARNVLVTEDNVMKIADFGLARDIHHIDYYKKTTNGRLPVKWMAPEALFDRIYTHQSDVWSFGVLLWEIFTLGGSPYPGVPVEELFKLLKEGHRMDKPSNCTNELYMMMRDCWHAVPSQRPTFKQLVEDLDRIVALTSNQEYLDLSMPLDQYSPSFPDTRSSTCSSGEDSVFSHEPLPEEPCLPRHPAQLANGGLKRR
Experiment: as above

Going from AYGGGYGGVLT [KRT19_Y65] to RPAFTYATLIR [FOXP3_Y342_P339A], the phosphorylation enrichment rises from 0.456 to 0.817.

First: KTAFSYTSSST [SIM1_Y356_P352T]
Second: HFPFQYHRQLY [F12_Y53]
The phosphorylation enrichment of the first is lower: 0.426 for the first, 0.449 for the second.

Going from EIEFLYNENMV [IARS1_Y680_T684M] to VVTGLYEKPSL [KIR3DS1_Y221], the phosphorylation enrichment rises from 0.418 to 0.456.

First: CFCSWYRGWAP [TIMP3_Y195_G190C_YF]
Second: VMSGPYNLKAL [IL1B_Y140_E141N]
The phosphorylation enrichment of the first is higher: 1.07 for the first, 0.569 for the second.

Going from PLLEFYRDIFT [CDAN1_Y713_YF] to KFANSYIMEPL [TCTE3_Y87_R88I], the phosphorylation enrichment falls from 0.822 to 0.524.

Going from PADRAYSWYQH [NDST1_Y711] to RELGKYGLQAF [ALDH2_Y497_E496K_YF], the phosphorylation enrichment falls from 1.33 to 0.578.

First: SLGKGYFDGGC [MC4R_Y35_S36Y_YF]
Second: RLLVVYPGTQR [HBB_Y36_W38G]
The phosphorylation enrichment of the first is lower: 0.434 for the first, 0.544 for the second.

Compared with GPIFRYDLGGA [CYP11B1_Y81], TCFDKYTGNTY [FN1_Y101] is higher in phosphorylation enrichment: 0.432 for the first, 0.463 for the second.

Compared with KFDLMYAKRAF [TUBA1A_Y399], IMITGYLLLFR [INSR_Y87_D86G] is higher in phosphorylation enrichment: 0.465 for the first, 0.721 for the second.

First: SVVVPYEPPVV [TP53_Y220_E224V]
Second: GVTLLYYGRYN [ADGRD1_Y85]
The phosphorylation enrichment of the first is lower: 0.446 for the first, 0.611 for the second.

Compared with EEVGIYRVSGV [BCR_Y1089], PVQAAYQKLVA [HBB_Y131_V134L] is lower in phosphorylation enrichment: 0.457 for the first, 0.447 for the second.

Going from VKGGAYYPVTV [MCCC2_Y145] to ANQDDHISFRH [IMP4_Y226_Y226H], the phosphorylation enrichment falls from 5.39 to 0.456.

First: GDNSIYVTKII [DLG1_Y349]
Second: GFPVHYTGVSN [DNMT3B_Y815_D817G]
The phosphorylation enrichment of the first is higher: 0.523 for the first, 0.392 for the second.

Going from IFLENYNAGTY [CFI_Y421_H418L] to GAPATYKGDAR [CACNA1A_Y1013_E1014K], the phosphorylation enrichment falls from 0.481 to 0.419.

First: GYSRHYEDGYP [CTNND1_Y217]
Second: YPLAEYTEVKT [ALDH1A3_Y497_A493P]
The phosphorylation enrichment of the first is lower: 0.391 for the first, 1.1 for the second.

Compared with TTHRGYDSDNP [MMUT_Y146_A141T], PLQKTYNFNVL [SLC4A1_Y553_YF] is higher in phosphorylation enrichment: 0.542 for the first, 0.554 for the second.

With VQSASYLNACL [MCM3AP_Y864] the phosphorylation enrichment was 0.381.
